The values that follow come from publication PMC6215862, “AlNAC4 Transcription Factor From Halophyte Aeluropus lagopoides Mitigates Oxidative Stress by Maintaining ROS Homeostasis in Transgenic Tobacco”.

Data set [1] addresses T1, AlNAC4 (Aeluropus lagopoides, UniProt A0A220T1T2 1-312).
T1 sequence: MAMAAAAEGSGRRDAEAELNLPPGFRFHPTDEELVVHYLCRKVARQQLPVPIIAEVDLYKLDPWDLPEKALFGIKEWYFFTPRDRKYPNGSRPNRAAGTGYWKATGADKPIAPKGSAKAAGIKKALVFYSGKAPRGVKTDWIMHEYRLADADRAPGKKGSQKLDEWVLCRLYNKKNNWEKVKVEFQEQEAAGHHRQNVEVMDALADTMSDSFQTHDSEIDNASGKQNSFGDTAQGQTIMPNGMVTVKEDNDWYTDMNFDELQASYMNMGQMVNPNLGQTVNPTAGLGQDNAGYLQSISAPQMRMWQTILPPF
Kind of data set: EMSA; 80 ng probe, 300-2400 ng protein; binding increases with protein; 15 mM HEPES, 35 mM KCl, 1 mM EDTA pH 8.0, 1 mM DTT, 1 mM MgCl2, 6% glycerol, 4 ug glycogen, 25 ul, room temperature 20 min; 10% acrylamide 0.5x TBE gel, ethidium bromide stain. As to conditions: protein: recombinant, tags: 6xHis (pET-28a; not thrombin-cleaved), chain copies: 2. (Mobility shift assays separate free from complexed probe on a gel.)

For data set [2], the target named is T1, AlNAC4. As to the kind of experiment: EMSA; data not shown; 15 mM HEPES, 35 mM KCl, 1 mM EDTA pH 8.0, 1 mM DTT, 1 mM MgCl2, 6% glycerol, 4 ug glycogen, 25 ul, room temperature 20 min; 10% acrylamide 0.5x TBE gel, ethidium bromide stain. Particulars: protein: recombinant; tags: 6xHis (pET-28a; not thrombin-cleaved); chain copies: 2; blunt.
For data set [3], the target named is T1, AlNAC4. As to the kind of experiment: EMSA; 15 mM HEPES, 35 mM KCl, 1 mM EDTA pH 8.0, 1 mM DTT, 1 mM MgCl2, 6% glycerol, 4 ug glycogen, 25 ul, room temperature 20 min; 10% acrylamide 0.5x TBE gel, ethidium bromide stain. As to conditions: protein: recombinant; tags: 6xHis (pET-28a; not thrombin-cleaved); chain copies: 2; blunt.

B1: NACBS (single NACRS with flanks, erd1 promoter) (dsDNA)
DNA 1: AGCTTGTGCAACTTGAGCTCTTCTTCTGTAACACGCATGTGTTGCGTTTGGTTTTTAATTTATTTGCCA
DNA 2: TGGCAAATAAATTAAAAACCAAACGCAACACATGCGTGTTACAGAAGAAGAGCTCAAGTTGCACAAGCT
For the molecule B1, the binding result in data set [1] (blunt) was “binds”.

B2: mutated NACBS (CATGTG to AAAAAA, AACA to TTAA) (dsDNA)
DNA 1: AGCTTGTGCAACTTGAGCTCTTCTTCTGTTTAACGAAAAAATTGCGTTTGGTTTTTAATTTATTTGCCA
DNA 2: TGGCAAATAAATTAAAAACCAAACGCAATTTTTTCGTTAAACAGAAGAAGAGCTCAAGTTGCACAAGCT
Consider B2, for which the binding result in data set [2] is given as “no binding”.

B3: pBSK+ MCS (dsDNA)
DNA 1: GGGGATCCACTAGTTCTAGAGCGGCCGCCA
DNA 2: TGGCGGCCGCTCTAGAACTAGTGGATCCCC
With B3, the binding result in data set [3] was “no binding”.

B4: NACBST (tandem NACRS, erd1 promoter) (dsDNA)
DNA 1: GGCCGCACACGCATGTGACACGCATGTGACACGCATGTGACACGCATGTGA
DNA 2: CTAGTCACATGCGTGTCACATGCGTGTCACATGCGTGTCACATGCGTGTGC
With B4, the binding result in data set [1] (5' overhangs 4 nt on both strands (GGCC, CTAG)) is “binds”.
